Data reported in the supplement of paper PMC9112550, “Optimization of the antimicrobial peptide Bac7 by deep mutational scanning” (BMC Biology, 2022).

Tested on: Escherichia coli TOP10
Experiment: shrunken log2 fold change of peptide-encoding DNA abundance (4.5 h post-induction vs induction); higher = less antimicrobial activity (less host growth inhibition)
Settings: time post-induction: 4.5 h; library: site-saturation at positions 5, 18, 19, 20
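Further: peptides expressed intracellularly from a pBAD plasmid library in pooled LB shake-flask culture, induced with 0.3% L-arabinose, DNA abundance read by NGS, three biological replicates, DESeq2 with apeglm shrinkage.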

Sequence | shrunken log2 fold change
RRIRKRPPRLPRPRPRPKEIPRP | 0.00103
RRIRSRPPRLPRPRPRPCTTPRP | -0.135
RRIRGRPPRLPRPRPRPTLMPRP | 0.815
RRIRHRPPRLPRPRPRPDVYPRP | 0.0592
RRIRGRPPRLPRPRPRPLQYPRP | -0.251
RRIRERPPRLPRPRPRPLKSPRP | -0.169
RRIRYRPPRLPRPRPRPHQMPRP | -0.0207
RRIRCRPPRLPRPRPRPPYMPRP | -0.288
RRIRFRPPRLPRPRPRPPSFPRP | -0.259
RRIRIRPPRLPRPRPRPNQCPRP | -0.465
RRIRVRPPRLPRPRPRPSFLPRP | -0.666
RRIRMRPPRLPRPRPRPTCCPRP | 0.213
RRIRWRPPRLPRPRPRPMPKPRP | 0.115
RRIRARPPRLPRPRPRPHLAPRP | 0.298
RRIRNRPPRLPRPRPRPTTMPRP | -0.0975
RRIRSRPPRLPRPRPRPYTDPRP | -1.11
RRIRYRPPRLPRPRPRPEVHPRP | -0.187
RRIRSRPPRLPRPRPRPSNIPRP | -0.484
RRIRCRPPRLPRPRPRPPWHPRP | 0.0193
RRIRRRPPRLPRPRPRPPFCPRP | 0.627
RRIRWRPPRLPRPRPRPRNVPRP | -0.0411
RRIRTRPPRLPRPRPRPMINPRP | -0.239
RRIRCRPPRLPRPRPRPSATPRP | 0.593
RRIRNRPPRLPRPRPRPLGFPRP | 0.0608
RRIRDRPPRLPRPRPRPQNFPRP | -0.707

Sequence | shrunken log2 fold change
RRIRLRPPRLPRPRPRPGKSPRP | -0.047
RRIRARPPRLPRPRPRPDQAPRP | 0.026
RRIRNRPPRLPRPRPRPIPWPRP | -0.102
RRIRPRPPRLPRPRPRPMWLPRP | 0.217
RRIRFRPPRLPRPRPRPPLDPRP | 0.461
RRIRVRPPRLPRPRPRPPTKPRP | 0.417
RRIRFRPPRLPRPRPRPPWEPRP | 0.124
RRIRHRPPRLPRPRPRPFSEPRP | -0.591
RRIRPRPPRLPRPRPRPIKKPRP | -0.00206
RRIRKRPPRLPRPRPRPLWGPRP | 0.115
RRIRKRPPRLPRPRPRPTMWPRP | 0.643
RRIRMRPPRLPRPRPRPAPAPRP | 1.53
RRIRVRPPRLPRPRPRPCFLPRP | -0.493
RRIRKRPPRLPRPRPRPYESPRP | 0.0419
RRIRFRPPRLPRPRPRPQFAPRP | 0.0456
RRIRDRPPRLPRPRPRPPDKPRP | 0.189
RRIRPRPPRLPRPRPRPGNEPRP | -0.247
RRIRKRPPRLPRPRPRPNFPPRP | 0.117
RRIRQRPPRLPRPRPRPVTSPRP | -0.0277
RRIRMRPPRLPRPRPRPRWMPRP | 0.315
RRIRDRPPRLPRPRPRPGQPPRP | -0.181
RRIRIRPPRLPRPRPRPCQMPRP | -0.111
RRIRHRPPRLPRPRPRPNGCPRP | -0.0302
RRIRHRPPRLPRPRPRPTSPPRP | -0.0524
RRIRTRPPRLPRPRPRPNYTPRP | -0.753

Sequence | shrunken log2 fold change
RRIRFRPPRLPRPRPRPFDFPRP | -0.692
RRIRIRPPRLPRPRPRPAMIPRP | 0.0156
RRIRLRPPRLPRPRPRPFNIPRP | -0.0972
RRIRRRPPRLPRPRPRPRWKPRP | -0.0516
RRIRHRPPRLPRPRPRPTKGPRP | -0.14
RRIRNRPPRLPRPRPRPRFYPRP | -0.201
RRIRTRPPRLPRPRPRPGDMPRP | 1.73
RRIRKRPPRLPRPRPRPISWPRP | -0.0574
RRIRHRPPRLPRPRPRPQHRPRP | -0.355
RRIRYRPPRLPRPRPRPWDFPRP | -0.0206
RRIRTRPPRLPRPRPRPHNPPRP | -0.385
RRIRTRPPRLPRPRPRPAGAPRP | 0.164
RRIRMRPPRLPRPRPRPCLVPRP | 0.0451
RRIRGRPPRLPRPRPRPHYPPRP | -0.222
RRIRVRPPRLPRPRPRPTQSPRP | 0.332
RRIRARPPRLPRPRPRPVCHPRP | 0.321
RRIRHRPPRLPRPRPRPLQVPRP | -0.28
RRIRFRPPRLPRPRPRPCCFPRP | -0.354
RRIRIRPPRLPRPRPRPVQWPRP | 0.0754
RRIRKRPPRLPRPRPRPDHYPRP | -0.0322
RRIRMRPPRLPRPRPRPFSFPRP | -0.0784
RRIRFRPPRLPRPRPRPFHGPRP | 0.00193
RRIRNRPPRLPRPRPRPMHIPRP | -0.168
RRIRNRPPRLPRPRPRPDNSPRP | -0.188
RRIRQRPPRLPRPRPRPNWHPRP | 0.141

Sequence | shrunken log2 fold change
RRIRLRPPRLPRPRPRPCHFPRP | -0.285
RRIRDRPPRLPRPRPRPKSAPRP | 0.0797
RRIRTRPPRLPRPRPRPAWGPRP | 0.142
RRIRSRPPRLPRPRPRPPIPPRP | 0.0379
RRIRDRPPRLPRPRPRPVIMPRP | -0.381
RRIRTRPPRLPRPRPRPFDTPRP | -0.346
RRIRCRPPRLPRPRPRPGPFPRP | -0.0444
RRIRPRPPRLPRPRPRPDYAPRP | 0.0585
RRIRKRPPRLPRPRPRPSKGPRP | -0.0301
RRIRDRPPRLPRPRPRPEIWPRP | 0.162
RRIRSRPPRLPRPRPRPQRTPRP | -0.036
RRIRIRPPRLPRPRPRPNVHPRP | -0.398
RRIRFRPPRLPRPRPRPCFYPRP | -0.394
RRIRSRPPRLPRPRPRPPYNPRP | -0.602
RRIRPRPPRLPRPRPRPTCWPRP | 0.349
RRIRSRPPRLPRPRPRPGGPPRP | 0.415
RRIRSRPPRLPRPRPRPIIMPRP | -0.35
RRIRARPPRLPRPRPRPINHPRP | -0.376
RRIRYRPPRLPRPRPRPGAAPRP | 0.176
RRIRSRPPRLPRPRPRPPTRPRP | 0.651
RRIRRRPPRLPRPRPRPQELPRP | 0.158
RRIRLRPPRLPRPRPRPVYRPRP | -0.548
RRIRGRPPRLPRPRPRPAGNPRP | 0.693
RRIRDRPPRLPRPRPRPNCHPRP | -0.23
RRIRYRPPRLPRPRPRPYQRPRP | -0.00973

Sequence | shrunken log2 fold change
RRIRTRPPRLPRPRPRPTKCPRP | -0.173
RRIRDRPPRLPRPRPRPGYLPRP | -0.394
RRIRHRPPRLPRPRPRPQLEPRP | 0.0607
RRIRRRPPRLPRPRPRPEIQPRP | 0.0536
RRIRVRPPRLPRPRPRPHISPRP | 0.0648
RRIRRRPPRLPRPRPRPRPWPRP | 0.737
RRIRWRPPRLPRPRPRPQLNPRP | 0.679
RRIRCRPPRLPRPRPRPCLFPRP | -0.333
RRIRCRPPRLPRPRPRPEQWPRP | 0.594
RRIRWRPPRLPRPRPRPAVHPRP | 0.631
RRIRGRPPRLPRPRPRPSISPRP | 0.0894
RRIRVRPPRLPRPRPRPEFYPRP | -0.251
RRIRDRPPRLPRPRPRPAFHPRP | -0.193
RRIRQRPPRLPRPRPRPCMMPRP | -0.498
RRIRGRPPRLPRPRPRPHMNPRP | 0.298
RRIRWRPPRLPRPRPRPHQSPRP | 0.0383
RRIRPRPPRLPRPRPRPFCTPRP | -0.00789
RRIRWRPPRLPRPRPRPVYVPRP | -0.231
RRIRQRPPRLPRPRPRPDHAPRP | 0.014
RRIRWRPPRLPRPRPRPLVDPRP | 0.0816
RRIRPRPPRLPRPRPRPQVWPRP | 0.202
RRIRMRPPRLPRPRPRPGMSPRP | -0.0593
RRIRARPPRLPRPRPRPHVKPRP | -0.289
RRIRIRPPRLPRPRPRPINVPRP | -0.619
RRIRRRPPRLPRPRPRPGNIPRP | -0.0618
